Laboratory results as given in publication doi:10.1101/2024.02.16.579611.

Molecular target: E. coli RNA polymerase holoenzyme Eσ^70 (His10-PPX-RNAP with σ^70) (E. coli) (UniProt P0A7Z4)
Assay: native MS

stoichiometry N: 2
Substance: KorA (wild type), C-terminally His-tagged (from UniProt P03052) (natural protein)
